The target of assay [1] is T1, CD40-Fc (Ancell #504-820) (human, UniProt P25942 21-193).
T1 construct: not shown: Fc part, bought reagent, not described
The assay can be described thus: ELISA, coated CD40-Fc. The procedure: (§1) ELISA plates (Greiner #655074) were coated with 50 μl/well of recombinant human OX40 (R&D #1493-CD), CD40-Fc (Ancell #504-820) or CD137 (R&D #838-4B) diluted to a final concentration of 0.5 μg/ml in PBS for 1h at 37° C. or overnight at 4° C. Plates were washed with PBS+0.05% TWEEN20 (PBST), followed by block with PBST+1% bovine serum albumin (BSA). Antibody samples were prepared as serial 1/10 dilutions from 10-0.01 μg/ml in PBST+1% BSA and incubated for 1 h in room temperature, followed by detection using a horse radish peroxidase-conjugated anti-human kappa light chain antibody (AbD Serotec #STAR127P) and developed using SuperSignal ELISA Pico Chemiluminescent substrate (Pierce ThermoScientific #37069).

Assay [2] concerns the target T2, recombinant human OX40 (R&D #1493-CD) (human, UniProt P43489 29-216, limits assumed).
T2 sequence (looked up): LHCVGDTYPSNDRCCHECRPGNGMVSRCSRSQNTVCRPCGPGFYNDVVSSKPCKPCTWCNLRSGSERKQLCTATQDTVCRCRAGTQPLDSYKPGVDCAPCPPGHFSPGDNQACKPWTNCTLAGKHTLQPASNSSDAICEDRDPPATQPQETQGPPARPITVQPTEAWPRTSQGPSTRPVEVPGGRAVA
Description: ELISA, coated OX40. How it is done: as §1
Background: In an ELISA, binding on a coated surface is turned into a signal by an enzyme label.

Assay [3] concerns the target T3, recombinant human CD137-Fc (R&D #838-4B) (human, UniProt Q07011 24-186).
T3 construct: bought; also called CD137 (R&D #838-4B); not shown: Fc part, bought reagent, not described
Description: ELISA, coated CD137-Fc. How it is done: Binding of CD137 antibodies to recombinant human CD137 was determined by sandwich ELISA. Briefly, ELISA plates (Greiner #655074) coated with recombinant human CD137-Fc (R&D #838-4B) were incubated with serial dilutions of the various CD137 antibodies to be investigated. CD137 antibodies were detected using HRP-conjugated goat-anti-human kappa light chain (AbD Serotec #STAR127P) and developed with SuperSignal ELISA Pico Chemiluminescent substrate (Pierce #37069). EC50 values of the various antibodies were determined in 2-6 separate experiments.

In assay [4] the target is T4, cynomolgus CD137 on transfected CHO cells (cynomolgus; human).
T4 construct: extracellular domain;domain: transmembrane and intracellular part; also called CHO-cyCD137; CHOcynoCD137
The assay can be described thus: flow cytometry, CD137-transfected CHO cells. How it is done:
(§2) Binding and EC50 was determined using flow cytometric analysis of CHO cells transfected with human CD137, cynomolgus CD137 or empty vector. The extracellular part of human or cynomolgus CD137 was fused to the transmembrane and intracellular part of human CD40 and cloned into pcDNA3.1. The vector was subsequently stably transfected into CHO cells. […] CD137-transfected and empty vector-transfected cells were incubated with CD137 antibodies for at least 1h at 4° C. to saturate the binding. In order to minimize antibody internalization, 0.05% sodium azide was used in the incubation buffer and all work was performed on ice. […] Directly after staining the cells were fixed with a paraformaldehyde solution (10x concentrate BD CellFIX, BD biosciences #340181). Cells were analyzed by flow cytometry using FACSVerse (BD Biosciences). The median fluorescence intensity (MFI) for each sample was determined and the dose response data was analysed using Graph Pad Prism.
(§3) MFI data was normalized for each antibody, where 0% is defined as the lowest value and 100% is the highest value in the dose titration for each antibody.
Background: Flow cytometry measures light scatter and fluorescence of single cells or particles in a stream.

For assay [5], the target named is T4, cynomolgus CD137 on transfected CHO …. Description: flow cytometry, CHO-cyCD137; 95% CI of EC50. The procedure:
as §2, §3

The target in assay [6] is T5, human CD137 on transfected CHO cells (human, UniProt Q07011 24-186; P25942 194-277, limits assumed).
T5 construct: extracellular domain;domain: transmembrane and intracellular part; also called CHO-huCD137; CHOhCD137
Description: flow cytometry, CHO-huCD137; 95% CI of EC50. How it is done: as §2, §3

In assay [7] the target is T6, human/mouse CD137 chimera 1550.
T6 construct: on transfected FreeStyle 293-F cells
The assay can be described thus: flow cytometry, 293-F cells with CD137 chimera. The procedure: (§4) The ability of each antibody to bind to a panel of human/mouse CD137 chimeras expressed on the surface of transfected cells was analyzed by flow cytometry.
(§5) The chimeras were designed by exchanging domains or modules of the human CD137 with the corresponding mouse domain (FIG. 7). Genes of CD137 human/mouse chimeras were synthesized (GenScript) and constructs cloned into pcDNA3.1 vector (Invitrogen) and transiently transfected into FreeStyle 293-F cells (Invitrogen). The transfected cells were incubated with CD137 antibodies and control antibodies, followed by incubation with anti-human IgG-PE (Jackson Immunoresearch) for detection and analyzed with FACS Verse (BD Biosciences). Binding to the different chimeric constructs was calculated as relative MFI compared to the binding of the isotype control, followed by normalization to the full-length human CD137 construct to minimize the effect of affinity differences between individual antibodies.

For assay [8], the target named is T7, human/mouse CD137 chimera 1551.
T7 construct: on transfected FreeStyle 293-F cells
The assay can be described thus: flow cytometry, 293-F cells with CD137 chimera. The procedure: as §4, §5

For assay [9], the target named is T8, human/mouse CD137 chimera 1552.
T8 construct: on transfected FreeStyle 293-F cells
The assay can be described thus: flow cytometry, 293-F cells with CD137 chimera. How it is done: as §4, §5

Assay [10] addresses T9, human/mouse CD137 chimera 1553.
T9 construct: on transfected FreeStyle 293-F cells
The assay can be described thus: flow cytometry, 293-F cells with CD137 chimera. How it is done: as §4, §5

Assay [11] addresses T10, human/mouse CD137 chimera 1554.
T10 construct: on transfected FreeStyle 293-F cells
The assay can be described thus: flow cytometry, 293-F cells with CD137 chimera. The procedure: as §4, §5

For assay [12], the target named is T11, human/mouse CD137 chimera 1555.
T11 construct: on transfected FreeStyle 293-F cells
Description: flow cytometry, 293-F cells with CD137 chimera. How it is done:
as §4, §5

Assay [13] addresses Human CD137 (R&D systems) (human, UniProt Q07011 24-186, limits assumed). The assay can be described thus: SPR Biacore, amine-coupled CD137, mAb injected (bivalent). How it is done: Human CD137 (R&D systems) was immobilized to the Biacore™ sensor chip, CMS, using conventional amine coupling. The tested antibody and control (serially diluted 1/2 10-0.63 nM) were analyzed for binding in HBS-P (GE, #BR-1003-68) at a flow rate of […]. The association was followed for 5 minutes and the dissociation for 15 minutes. Regeneration was performed twice using 10 mM Glycine pH 1.7 for 30 seconds. The kinetic parameters and the affinity constants were calculated using 1:1 Langmuir model.

The target of assay [14] is T12, biotinylated CD137 (UniProt Q07011 24-186, limits assumed, biotinylated). The assay can be described thus: SPR MASS-1, biotinylated antigen on streptavidin chip, parental mAb.
Assay [15] deals with T13, full-length human CD137 construct 1030 (human, UniProt Q07011 24-255).
T13 construct: whole, on cells; on transfected FreeStyle 293-F cells; also called Full-length CD137
The assay can be described thus: flow cytometry, 293-F cells with full-length CD137 (reference of the normalization). How it is done: as §4, §5

Assay [16] deals with T12, biotinylated CD137. The assay can be described thus: SPR MASS-1, biotinylated antigen on streptavidin chip, parental mAb (same value as printed at r8c7, repeated in the row of 1618-1210).

The EC50 is the concentration that produces a half-maximal response. For orientation: koff means the first-order rate constant of dissociation. A high value points to a short-lived complex. By kon is commonly meant the rate constant with which the complex forms. Read a low kon as slow association.

Human CD137 (R&D systems), sequence (Q07011 24-186 limits assumed): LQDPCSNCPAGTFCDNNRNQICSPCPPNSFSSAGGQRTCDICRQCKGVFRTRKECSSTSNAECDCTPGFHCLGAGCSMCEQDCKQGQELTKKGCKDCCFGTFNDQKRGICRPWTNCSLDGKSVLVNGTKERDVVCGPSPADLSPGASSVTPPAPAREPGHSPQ
T4 sequence (P25942 other isoform, or with tags, fused parts or gaps): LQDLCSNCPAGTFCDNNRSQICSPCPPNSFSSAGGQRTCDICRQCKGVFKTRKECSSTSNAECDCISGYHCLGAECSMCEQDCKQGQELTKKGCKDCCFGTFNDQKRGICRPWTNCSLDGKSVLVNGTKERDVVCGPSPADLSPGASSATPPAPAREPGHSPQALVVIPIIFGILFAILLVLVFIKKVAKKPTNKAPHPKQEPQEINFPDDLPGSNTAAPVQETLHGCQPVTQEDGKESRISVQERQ
T12 sequence (Q07011 24-186 limits assumed): as the sequence (Q07011 24-186 limits assumed) above
T3 sequence (Q07011 24-186 limits assumed): as above
T1 sequence (P25942 21-193 limits assumed): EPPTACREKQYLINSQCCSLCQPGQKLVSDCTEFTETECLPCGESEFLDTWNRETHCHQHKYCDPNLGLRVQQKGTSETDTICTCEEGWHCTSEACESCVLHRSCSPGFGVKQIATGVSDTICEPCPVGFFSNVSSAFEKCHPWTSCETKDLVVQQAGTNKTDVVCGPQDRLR
T13 sequence (Q07011 24-255): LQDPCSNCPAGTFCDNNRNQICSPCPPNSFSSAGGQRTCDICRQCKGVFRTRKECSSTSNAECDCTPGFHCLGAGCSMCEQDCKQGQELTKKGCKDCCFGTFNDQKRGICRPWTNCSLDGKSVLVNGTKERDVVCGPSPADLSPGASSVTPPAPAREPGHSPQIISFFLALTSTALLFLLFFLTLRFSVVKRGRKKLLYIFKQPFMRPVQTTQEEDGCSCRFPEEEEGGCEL
T5 sequence (Q07011 other isoform, or with tags, fused parts or gaps limits assumed): as the sequence (P25942 other isoform, or with tags, fused parts or gaps) above, with L4P, S19N, K50R, I66T, S67P, Y69F, E75G, A149V counted along it

B1: 1618/1619 (antibody, V domains shown)
VH: EVQLLESGGGLVQPGGSLRLSCAASGFTFSYGSMYWVRQAPGKGLEWVSSISSGSGSTYYADSVKGRFTISRDNSKNTLYLQMNSLRAEDTAVYYCARSSYYGSYYSIDYWGQGTLVTVSS
VL: DIQMTQSPSSLSASVGDRVTITCRASQSISSYLNWYQQKPGKAPKLLIYAASSLQSGVPSRFSGSGSGTDFTLTISSLQPEDFATYYCQQYYDNLPTFGQGTKLEIK
In the case of B1, the binding result in [1] and in [2] was “no binding (tested: 10 µg/ml)” throughout. Besides, the results for the concentration giving a half-maximal response (EC50) in assay [3], in [5] and in assay [6] were 350 pM, 0.086 to 0.15 µg/mL and 0.11 to 0.19 µg/mL, respectively. In assay [4], the “Ratio, cyno:human” value was determined as 0.77. The “MFI/isotype control normalized to full-length human CD137” value in [7] is 0.11; in assay [8], 0.67; in [9] it was 1.2; in assay [10], 1.24; in assay [11] it was 1.01; in assay [12], 0.12. In addition, in [15], the “MFI/isotype control normalized to full-length human CD137” value was determined as 1. The Kd in [13] was 107 pM; with biotinylated CD137 [14], 156 pM; with biotinylated CD137 [16], 156 pM. Moreover, the koff in assay [13] amounted to 0.00011 s⁻¹. Further, the kon in assay [13] turned out to be 1.02e+06 M⁻¹ s⁻¹.

The values are drawn from patent publication US20190169308A1 (ALLIGATOR BIOSCIENCE, published 2019).
